For one molecule, Max O.D. Tau fragment binding results are on record in patent US20110059093A1.

The experiment has as its target T1, Tau fragment Ser-Ile-Asp-Met-Val-Asp-Ser-Pro-Gln-Leu-Ala-Thr-Leu-Ala-Asp (SEQ ID NO:10) (human).
T1 sequence (peptide, biotinylated): SIDMVDSPQLATLAD
Nature of the experiment: ELISA, biotinylated peptide on streptavidin plate, absorbance 405 nm-492 nm.

B1: Mab2.10.3 (anti-Tau pS422 antibody) (antibody, IgG1, V domains shown)
VH: EVQLVESGGDLVRPGGSLKLSCAASGFTFRTYGMSWVRQTADKRLEWVATISSGGTYTYYADNVRERFTISRDNARDTLYLQMSRLESDDTAMYYCTRRYGYDGGGSFDVWGAGTRVTVSS
VL: EIVMTQAAPSVPVTPGESASISCRSNKSLLHSNGNTYLCWFLQRPGQSPQLLIYRMSTLAPGVPDRFSGSGSGTAFTLRISRLEAEDVGVYYCMQHIEYPLTFGAGTKLELK
Regarding B1, the Max O.D. Tau fragment binding was 30 mE.
